Results on one molecule are retold here after PMC5750232, “RAD54 N-terminal domain is a DNA sensor that couples ATP hydrolysis with branch migration of Holliday junctions” (Nature Communications, 2018).

One series has as its target T1, RAD54 1-142 T31E (human, UniProt Q92698 1-142, T31E).
T1 sequence: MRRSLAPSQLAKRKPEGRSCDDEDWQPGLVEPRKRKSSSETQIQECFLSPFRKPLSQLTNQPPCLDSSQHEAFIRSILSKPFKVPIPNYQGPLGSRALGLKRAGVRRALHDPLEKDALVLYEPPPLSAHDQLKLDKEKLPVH
Description: EMSA; no significant effect of mutation; 5 mM Mg2+, 2 mM ATP; 25 mM Tris-acetate pH 7.5, 5 mM Mg acetate, 100 ug/ml BSA, 2 mM DTT, 2 mM ATP, 10% glycerol, 4 C, 45 min; 30 nM PX junction; 6% native PAGE in 0.25x TBE. The conditions noted are these: protein: recombinant; tags: Sumo-His, cleaved; partial X junction with one ssDNA arm, 4 strands. A general note: In EMSA bound probe runs differently from free probe, usually more slowly.

Another series has as its target T2, RAD54 1-142 52AA53 (human, UniProt Q92698 1-142, R52A;K53A).
T2 sequence: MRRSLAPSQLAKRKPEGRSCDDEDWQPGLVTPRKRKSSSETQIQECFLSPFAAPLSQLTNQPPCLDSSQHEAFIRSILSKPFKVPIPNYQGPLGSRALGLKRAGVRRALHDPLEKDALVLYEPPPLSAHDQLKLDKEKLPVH
Description: EMSA; similar to non-mutated 1-142; 5 mM Mg2+, 2 mM ATP; 25 mM Tris-acetate pH 7.5, 5 mM Mg acetate, 100 ug/ml BSA, 2 mM DTT, 2 mM ATP, 10% glycerol, 4 C, 45 min; 30 nM PX junction; 6% native PAGE in 0.25x TBE. The conditions noted are these: protein: recombinant; tags: Sumo-His, cleaved; partial X junction with one ssDNA arm, 4 strands.

B1: non-mobile PX junction (174/175/176/181) (structured_DNA)
DNA 1: GACGCTGCCGAATTCTACCAGTGCCTTGCTAGGACATCTTTGCCCACCTGCAGGTTCACCC
DNA 2: TGGGTGAACCTGCAGGTGGGCAAAGATGTCCTAGCAATGTAATCGTCAAGCTTTATGCCGTT
DNA 3: CAACGGCATAAAGCTTGACGATTACATTGCTAGGACATGCTGTCTAGAGGATCCGACTATCGA
DNA 4: TCGATAGTCGGATCCTCTAGACAGC
As for B1, the binding result with RAD54 1-142 T31E and in the series with RAD54 1-142 52AA53 was “binds” in each case.
